US20210063414A1, “METHODS FOR PREVENTING AND/OR TREATING BONE LOSS CONDITIONS BY MODULATING IRISIN” (Dana-Farber Cancer Institute, Inc., priority 2018, published 2021)

How the values were obtained:
[1] = target: T1, MLO-Y4 cell surface proteins (Mus musculus, UniProt P52825); assay: Crosslinking/co-immunoprecipitation/mass spectrometry (TMT quantitative proteomics) to identify irisin receptors; type: binding; settings: co-precipitated protein Cpt2 (CPT2_MOUSE)
T1 construct: endogenous in cells; host or cells: MLO-Y4
T1 sequence (P52825 26-658): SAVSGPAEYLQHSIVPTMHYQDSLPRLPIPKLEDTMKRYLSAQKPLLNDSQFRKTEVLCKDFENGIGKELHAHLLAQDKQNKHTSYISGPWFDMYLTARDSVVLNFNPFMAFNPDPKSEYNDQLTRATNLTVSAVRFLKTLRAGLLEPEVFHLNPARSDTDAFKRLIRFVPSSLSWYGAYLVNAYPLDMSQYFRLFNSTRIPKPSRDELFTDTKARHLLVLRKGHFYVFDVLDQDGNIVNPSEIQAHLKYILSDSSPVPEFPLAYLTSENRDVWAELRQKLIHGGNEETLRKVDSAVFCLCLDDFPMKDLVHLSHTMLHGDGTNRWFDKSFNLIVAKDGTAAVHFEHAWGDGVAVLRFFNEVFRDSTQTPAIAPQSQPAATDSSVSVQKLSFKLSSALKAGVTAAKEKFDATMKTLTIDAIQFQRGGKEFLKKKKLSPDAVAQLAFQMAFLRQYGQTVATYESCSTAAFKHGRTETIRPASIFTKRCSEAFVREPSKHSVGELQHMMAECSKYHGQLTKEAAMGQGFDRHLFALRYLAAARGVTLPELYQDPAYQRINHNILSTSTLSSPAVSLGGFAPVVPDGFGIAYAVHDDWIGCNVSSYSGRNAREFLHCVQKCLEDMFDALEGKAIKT
In short: (§1)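 Relative protein abundance came from 6-plex TMT MS3 quantitation on an Orbitrap Fusion Lumos, after in-gel trypsin digestion of Coomassie-stained SDS-PAGE lanes. Input was a Ni-NTA pulldown (250 mM imidazole elution) of lysates from murine MLO-Y4 cells. These cells were treated on ice with His-tagged irisin or adipsin (10 nM, 20 min) in serum-free medium, then crosslinked with 1.5 mM DTSSP for 30 min.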

[2] = target: T2, MLO-Y4 cell surface proteins (Mus musculus, UniProt Q9CY64); assay: as above; type: binding; settings: co-precipitated protein Blvra (BIEA_MOUSE)
T2 construct: endogenous in cells; host or cells: MLO-Y4
T2 sequence (Q9CY64 3-295): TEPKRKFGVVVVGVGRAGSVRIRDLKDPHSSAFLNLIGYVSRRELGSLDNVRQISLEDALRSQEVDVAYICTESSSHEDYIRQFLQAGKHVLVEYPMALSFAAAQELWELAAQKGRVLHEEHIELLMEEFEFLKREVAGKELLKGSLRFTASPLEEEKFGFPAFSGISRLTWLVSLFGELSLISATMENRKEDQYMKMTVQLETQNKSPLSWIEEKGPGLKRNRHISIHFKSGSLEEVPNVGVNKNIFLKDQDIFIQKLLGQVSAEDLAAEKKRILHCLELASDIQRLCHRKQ
In short: as §1

B1: irisin: secreted cleaved form of FNDC5; recombinant human/mouse irisin with C-terminal his tag produced in HEK293 cells (protein)
chain: DSPSAPVNVTVRHLKANSAVVSWDVLEDEVVIGFAISQQKKDVRMLRFIQEVNTTTRSCALWDLEEDTEYIVHVQAISIQGQSPASEPVLFKTPREAEKMASKNKDEVTMKE
modifications: left off: small tags and cut ends
notes: secreted cleaved form of FNDC5; recombinant human/mouse irisin with C-terminal his tag produced in HEK293 cells
TMT signal-to-noise ratio [1]: 96.8301
irisin/adipsin TMT signal-to-noise ratio [1]: 0.545
TMT signal-to-noise ratio [2]: 86.0306
irisin/adipsin TMT signal-to-noise ratio [2]: 0.284
